Results from patent US20230201361.

Tested on: eighteen amino acid peptide containing the amino acid sequence PLGIA, covalently labeled with the same fluorophore near each end (HES structure)

Sequence of matrix metalloprotease -9 (MMP-9) (chain, as listed by the source): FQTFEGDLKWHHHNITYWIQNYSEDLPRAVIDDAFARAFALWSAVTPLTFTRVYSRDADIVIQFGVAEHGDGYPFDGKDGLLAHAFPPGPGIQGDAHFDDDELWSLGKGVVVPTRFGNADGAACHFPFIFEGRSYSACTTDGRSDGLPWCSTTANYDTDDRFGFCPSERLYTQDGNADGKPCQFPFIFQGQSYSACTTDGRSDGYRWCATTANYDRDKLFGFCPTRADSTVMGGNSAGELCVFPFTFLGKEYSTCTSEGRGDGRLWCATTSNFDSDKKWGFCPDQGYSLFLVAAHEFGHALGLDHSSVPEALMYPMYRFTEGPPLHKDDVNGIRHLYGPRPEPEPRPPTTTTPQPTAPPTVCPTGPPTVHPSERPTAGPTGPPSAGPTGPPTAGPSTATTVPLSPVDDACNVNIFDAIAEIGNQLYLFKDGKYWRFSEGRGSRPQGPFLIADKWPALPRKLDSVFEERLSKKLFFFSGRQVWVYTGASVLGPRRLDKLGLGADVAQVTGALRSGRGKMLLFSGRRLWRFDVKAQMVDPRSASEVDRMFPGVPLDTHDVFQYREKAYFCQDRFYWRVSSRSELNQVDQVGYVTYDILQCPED

## matrix metalloprotease -9 (MMP-9)
  HPLC retention time (C18, reverse phase): After exposure to MMP-9, the major peaks were at ca. 30 and 31 minutes with the almost complete disappearance of the 38 minute peak
  cleavage of the peptide: The PLGIA sequence was recognized by matrix metalloprotease -9 (MMP-9) and is cleaved between the LG and the IA
